Legend:
Test in all cases: holdup assay
Design in all cases: key: below the threshold = too weak to quantify, mostly under pKd 3.1 to 4
LIN7A, O14910 = biological target: T1, LIN7A, O14910
T1 sequence (O14910 103-200, limits assumed, looked up): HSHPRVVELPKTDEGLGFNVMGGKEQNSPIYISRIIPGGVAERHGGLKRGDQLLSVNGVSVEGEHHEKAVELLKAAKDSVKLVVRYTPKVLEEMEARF

PDZRN3_1, Q9UPQ7 = biological target: T2, PDZRN3_1, Q9UPQ7
T2 sequence (Q9UPQ7 244-349, limits assumed, looked up): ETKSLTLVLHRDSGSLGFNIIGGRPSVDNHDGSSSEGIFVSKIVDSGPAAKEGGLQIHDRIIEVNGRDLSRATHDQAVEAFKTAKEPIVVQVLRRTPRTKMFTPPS

GRIP1_7, Q9Y3R0 = biological target: T3, GRIP1_7, Q9Y3R0
T3 sequence (Q9Y3R0 999-1096, limits assumed, looked up): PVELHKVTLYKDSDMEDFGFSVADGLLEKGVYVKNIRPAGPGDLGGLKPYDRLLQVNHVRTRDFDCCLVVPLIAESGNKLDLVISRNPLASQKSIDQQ

PDLIM1, O00151 = biological target: PDLIM1, O00151
Sequence of PDLIM1, O00151 (O00151 1-87): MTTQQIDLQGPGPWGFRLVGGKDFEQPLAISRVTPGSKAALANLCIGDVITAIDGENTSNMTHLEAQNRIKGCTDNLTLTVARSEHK

GRIP1_5, Q9Y3R0 = biological target: T4, GRIP1_5, Q9Y3R0
T4 sequence (Q9Y3R0 568-668, limits assumed, looked up): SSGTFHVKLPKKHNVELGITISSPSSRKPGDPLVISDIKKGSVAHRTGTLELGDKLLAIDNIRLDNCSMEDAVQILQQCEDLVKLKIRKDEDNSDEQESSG

DLG4_1, P78352 = biological target: DLG4_1, P78352
Sequence of DLG4_1, P78352 (P78352 62-152): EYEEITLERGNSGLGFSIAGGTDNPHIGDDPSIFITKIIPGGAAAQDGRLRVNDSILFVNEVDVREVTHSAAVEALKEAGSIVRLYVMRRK

DLG3_1, Q92796 = biological target: T5, DLG3_1, Q92796
T5 sequence (Q92796 125-227, limits assumed, looked up): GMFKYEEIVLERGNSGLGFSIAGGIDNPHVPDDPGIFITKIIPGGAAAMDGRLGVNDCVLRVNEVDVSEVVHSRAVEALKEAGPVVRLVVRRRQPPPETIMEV

PARD3B_1, Q8TEW8 = biological target: T6, PARD3B_1, Q8TEW8
T6 sequence (Q8TEW8 196-299, limits assumed, looked up): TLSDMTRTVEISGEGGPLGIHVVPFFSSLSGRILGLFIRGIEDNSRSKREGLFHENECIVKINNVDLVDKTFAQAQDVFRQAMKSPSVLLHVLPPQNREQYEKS

MPDZ_12, O75970 = biological target: T7, MPDZ_12, O75970
T7 sequence (O75970 1857-1958, limits assumed, looked up): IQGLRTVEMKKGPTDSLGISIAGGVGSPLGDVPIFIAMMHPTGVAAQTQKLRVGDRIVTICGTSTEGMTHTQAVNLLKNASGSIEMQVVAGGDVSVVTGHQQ

NOS1, P29475 = biological target: NOS1, P29475
Sequence of NOS1, P29475 (P29475 9-101): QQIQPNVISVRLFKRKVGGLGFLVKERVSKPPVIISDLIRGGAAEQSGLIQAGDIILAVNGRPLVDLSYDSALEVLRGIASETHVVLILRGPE

APBA3_1, O96018 = biological target: T8, APBA3_1, O96018
T8 sequence (O96018 389-490, limits assumed, looked up): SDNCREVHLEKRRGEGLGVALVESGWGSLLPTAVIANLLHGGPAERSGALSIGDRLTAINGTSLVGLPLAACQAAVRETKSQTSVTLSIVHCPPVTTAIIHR

IL16_4, Q14005 = biological target: IL16_4, Q14005
Sequence of IL16_4, Q14005 (Q14005 1229-1329): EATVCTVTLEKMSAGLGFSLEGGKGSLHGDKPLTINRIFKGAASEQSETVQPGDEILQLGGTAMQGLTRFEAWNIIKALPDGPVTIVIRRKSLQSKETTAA

Inadl_3, Q8NI35 = biological target: Inadl_3, Q8NI35
Sequence of Inadl_3, Q8NI35 (Q8NI35 359-469): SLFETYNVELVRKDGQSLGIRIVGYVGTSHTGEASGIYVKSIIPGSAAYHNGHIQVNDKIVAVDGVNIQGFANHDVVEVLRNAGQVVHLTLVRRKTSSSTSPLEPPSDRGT

MAGI2_3, Q86UL8 = biological target: MAGI2_3, Q86UL8
Sequence of MAGI2_3, Q86UL8 (Q86UL8 600-682): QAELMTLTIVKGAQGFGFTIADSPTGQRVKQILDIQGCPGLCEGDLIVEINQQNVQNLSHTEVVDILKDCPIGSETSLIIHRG

FRMPD4, Q14CM0 = biological target: FRMPD4, Q14CM0
Sequence of FRMPD4, Q14CM0 (Q14CM0 67-160): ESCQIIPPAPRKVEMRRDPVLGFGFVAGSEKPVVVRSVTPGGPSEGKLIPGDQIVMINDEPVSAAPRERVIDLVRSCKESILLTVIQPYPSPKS

MAGI2_6, Q86UL8 = biological target: MAGI2_6, Q86UL8
Sequence of MAGI2_6, Q86UL8 (Q86UL8 1141-1229): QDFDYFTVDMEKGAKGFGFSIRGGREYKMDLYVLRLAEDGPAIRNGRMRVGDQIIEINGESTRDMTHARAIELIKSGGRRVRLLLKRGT

PARD3_3, Q8TEW0 = biological target: PARD3_3, Q8TEW0
Sequence of PARD3_3, Q8TEW0 (Q8TEW0 582-685): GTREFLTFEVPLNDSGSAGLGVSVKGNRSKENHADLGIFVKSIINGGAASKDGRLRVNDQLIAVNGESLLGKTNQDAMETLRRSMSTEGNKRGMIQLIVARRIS

APBA2_1, Q99767 = biological target: T9, APBA2_1, Q99767
T9 sequence (Q99767 563-664, limits assumed, looked up): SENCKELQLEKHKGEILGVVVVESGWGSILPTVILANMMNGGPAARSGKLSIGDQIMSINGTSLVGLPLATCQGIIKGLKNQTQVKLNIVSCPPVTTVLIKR

NHERF3_1, Q5T2W1 = biological target: T10, NHERF3_1, Q5T2W1
T10 sequence (Q5T2W1 4-100, limits assumed, looked up): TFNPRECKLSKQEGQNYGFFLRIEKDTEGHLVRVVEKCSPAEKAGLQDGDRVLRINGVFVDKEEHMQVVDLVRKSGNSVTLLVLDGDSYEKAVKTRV

GRID2IP_1, A4D2P6 = biological target: GRID2IP_1, A4D2P6
Sequence of GRID2IP_1, A4D2P6 (A4D2P6 1-87): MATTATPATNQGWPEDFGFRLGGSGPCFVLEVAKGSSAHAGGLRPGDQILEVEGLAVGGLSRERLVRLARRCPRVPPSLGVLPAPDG

FRMPD1, Q5SYB0 = biological target: T11, FRMPD1, Q5SYB0
T11 sequence (Q5SYB0 52-145, limits assumed, looked up): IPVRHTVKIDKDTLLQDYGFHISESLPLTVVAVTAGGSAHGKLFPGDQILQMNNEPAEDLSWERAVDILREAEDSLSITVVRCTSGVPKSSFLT

LDB3, O75112 = biological target: LDB3, O75112
Sequence of LDB3, O75112 (O75112 1-94): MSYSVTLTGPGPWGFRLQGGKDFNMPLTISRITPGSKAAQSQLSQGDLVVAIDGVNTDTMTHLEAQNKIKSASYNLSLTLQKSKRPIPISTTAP

MPDZ_5, O75970 = biological target: T12, MPDZ_5, O75970
T12 sequence (O75970 695-796, limits assumed, looked up): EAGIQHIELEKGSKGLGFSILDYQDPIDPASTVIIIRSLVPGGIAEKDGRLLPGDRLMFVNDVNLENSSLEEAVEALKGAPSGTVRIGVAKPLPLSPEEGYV

CARD11, Q9BXL7 = biological target: T13, CARD11, Q9BXL7
T13 sequence (Q9BXL7 662-765, limits assumed, looked up): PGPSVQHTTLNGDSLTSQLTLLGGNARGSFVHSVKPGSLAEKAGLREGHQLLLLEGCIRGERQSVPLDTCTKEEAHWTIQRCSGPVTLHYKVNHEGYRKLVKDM

[1] = plain residues with an end cap or a label only (N-terminal biotin on a linker: ado-ado)
[2] = plain residues with an end cap or a label only (N-terminal biotin on a linker: ttds)
[3] = plain residues with an end cap or a label only (N-terminal biotin on a linker: ahx)

Measured: pKd

GFGEERESIL [KIDINS220, Q9ULH0]
3.48: MAGI2_3, Q86UL8; [1]
3.65: Inadl_3, Q8NI35; [1]
4.57: PARD3B_1, Q8TEW8; [1]
3.55: LIN7A, O14910; [1]
4.35: PARD3_3, Q8TEW0; [1]
below the threshold: GRIP1_7, Q9Y3R0; [1] | PDLIM1, O00151; [1] | GRIP1_5, Q9Y3R0; [1] | DLG4_1, P78352; [1] | DLG3_1, Q92796; [1] | MPDZ_12, O75970; [1] | NOS1, P29475; [1] | APBA3_1, O96018; [1] | APBA2_1, Q99767; [1] | GRID2IP_1, A4D2P6; [1] | FRMPD1, Q5SYB0; [1] | LDB3, O75112; [1] | MPDZ_5, O75970; [1] | CARD11, Q9BXL7; [1]
5.06: NHERF3_1, Q5T2W1; [1]
3.74: IL16_4, Q14005; [1]
4.72: PDZRN3_1, Q9UPQ7; [1]
3.67: MAGI2_6, Q86UL8; [1]
3.92: FRMPD4, Q14CM0; [1]

PKRPFVESNV [TANC2, Q9HCD6]
3.82: DLG3_1, Q92796; [2]
3.76: MAGI2_6, Q86UL8; [2]
below the threshold: LIN7A, O14910; [2] | PDZRN3_1, Q9UPQ7; [2] | GRIP1_7, Q9Y3R0; [2] | PDLIM1, O00151; [2] | GRIP1_5, Q9Y3R0; [2] | PARD3B_1, Q8TEW8; [2] | MPDZ_12, O75970; [2] | NOS1, P29475; [2] | APBA3_1, O96018; [2] | IL16_4, Q14005; [2] | Inadl_3, Q8NI35; [2] | MAGI2_3, Q86UL8; [2] | FRMPD4, Q14CM0; [2] | PARD3_3, Q8TEW0; [2] | APBA2_1, Q99767; [2] | GRID2IP_1, A4D2P6; [2] | FRMPD1, Q5SYB0; [2] | LDB3, O75112; [2] | MPDZ_5, O75970; [2] | CARD11, Q9BXL7; [2]
3.59: NHERF3_1, Q5T2W1; [2]
4.32: DLG4_1, P78352; [2]

VNKVWDQSSV [CIT, O14578]
below the threshold: LIN7A, O14910; [2] | GRIP1_7, Q9Y3R0; [2] | PDLIM1, O00151; [2] | GRIP1_5, Q9Y3R0; [2] | DLG4_1, P78352; [2] | DLG3_1, Q92796; [2] | PARD3B_1, Q8TEW8; [2] | MPDZ_12, O75970; [2] | NOS1, P29475; [2] | APBA3_1, O96018; [2] | IL16_4, Q14005; [2] | Inadl_3, Q8NI35; [2] | MAGI2_3, Q86UL8; [2] | FRMPD4, Q14CM0; [2] | PARD3_3, Q8TEW0; [2] | APBA2_1, Q99767; [2] | NHERF3_1, Q5T2W1; [2] | GRID2IP_1, A4D2P6; [2] | FRMPD1, Q5SYB0; [2] | LDB3, O75112; [2] | MPDZ_5, O75970; [2] | CARD11, Q9BXL7; [2]
3.53: PDZRN3_1, Q9UPQ7; [2]
3.57: MAGI2_6, Q86UL8; [2]

SEKHFRETEV [HTLV1-TAX1, P03409]
4.58: DLG3_1, Q92796; [2]
5.1: PDZRN3_1, Q9UPQ7; [2]
4.43: MAGI2_6, Q86UL8; [2]
3.71: PARD3_3, Q8TEW0; [2]
3.82: LIN7A, O14910; [2]
4.09: NOS1, P29475; [2]
5.22: DLG4_1, P78352; [2]
below the threshold: GRIP1_7, Q9Y3R0; [2] | GRIP1_5, Q9Y3R0; [2] | PARD3B_1, Q8TEW8; [2] | MPDZ_12, O75970; [2] | APBA3_1, O96018; [2] | IL16_4, Q14005; [2] | FRMPD4, Q14CM0; [2] | APBA2_1, Q99767; [2] | GRID2IP_1, A4D2P6; [2] | FRMPD1, Q5SYB0; [2] | LDB3, O75112; [2] | MPDZ_5, O75970; [2] | CARD11, Q9BXL7; [2]
4.3: MAGI2_3, Q86UL8; [2]
4.71: NHERF3_1, Q5T2W1; [2]
3.69: PDLIM1, O00151; [2] | Inadl_3, Q8NI35; [2]

EKLSSIESDV [GRIN2B, Q13224]
3.91: Inadl_3, Q8NI35; [3]
3.7: PDZRN3_1, Q9UPQ7; [3]
4.65: MAGI2_6, Q86UL8; [3]
4.15: DLG3_1, Q92796; [3]
below the threshold: LIN7A, O14910; [3] | GRIP1_5, Q9Y3R0; [3] | PARD3B_1, Q8TEW8; [3] | MPDZ_12, O75970; [3] | NOS1, P29475; [3] | APBA3_1, O96018; [3] | IL16_4, Q14005; [3] | MAGI2_3, Q86UL8; [3] | FRMPD4, Q14CM0; [3] | PARD3_3, Q8TEW0; [3] | NHERF3_1, Q5T2W1; [3] | GRID2IP_1, A4D2P6; [3] | FRMPD1, Q5SYB0; [3] | LDB3, O75112; [3] | MPDZ_5, O75970; [3] | CARD11, Q9BXL7; [3]
3.71: PDLIM1, O00151; [3]
3.53: APBA2_1, Q99767; [3]
4.37: DLG4_1, P78352; [3]
3.48: GRIP1_7, Q9Y3R0; [3]

HIVEALETDV [PBK, Q96KB5]
3.93: MAGI2_3, Q86UL8; [2]
3.76: PARD3_3, Q8TEW0; [2]
3.91: PDLIM1, O00151; [2]
4.46: Inadl_3, Q8NI35; [2]
5.35: MAGI2_6, Q86UL8; [2]
5.11: DLG4_1, P78352; [2]
below the threshold: LIN7A, O14910; [2] | PDZRN3_1, Q9UPQ7; [2] | GRIP1_7, Q9Y3R0; [2] | GRIP1_5, Q9Y3R0; [2] | PARD3B_1, Q8TEW8; [2] | MPDZ_12, O75970; [2] | NOS1, P29475; [2] | APBA3_1, O96018; [2] | IL16_4, Q14005; [2] | FRMPD4, Q14CM0; [2] | APBA2_1, Q99767; [2] | NHERF3_1, Q5T2W1; [2] | GRID2IP_1, A4D2P6; [2] | FRMPD1, Q5SYB0; [2] | LDB3, O75112; [2] | MPDZ_5, O75970; [2] | CARD11, Q9BXL7; [2]
4.67: DLG3_1, Q92796; [2]

From publication PMC9482650, “Quantitative fragmentomics allow affinity mapping of interactomes” (Nature Communications, 2022)
